# Data reported in patent US20170037087.
# Target: recombinant IL-8 (UniProt P10145)
# Sequence (P10145 28-99): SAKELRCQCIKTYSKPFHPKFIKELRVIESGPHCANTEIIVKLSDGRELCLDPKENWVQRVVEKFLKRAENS
substance,measurement,value
SpyCEP in cell-free GAS culture supernatants,IL-8 degradation (uncleaved IL-8 by ELISA),the IL-8 degrading activity of SpyCEP
